Experimental data as given in patent publication US20240239860.

Biological target: T1, thio GLP-1 (GLP-1 7-36 with a thioamide at the Ala8-Glu9 scissile bond)
T1 chain: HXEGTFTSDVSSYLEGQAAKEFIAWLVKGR

B1: dipeptidyl peptidase 4 (DPP-4) (protein)
chain: SRKTYTLTDYLKNTYRLKLYSLRWISDHEYLYKQENNILVFNAEYGNSSVFLENSTFDEFGHSINDYSISPDGQFILLEYNYVKQWRHSYTASYDIYDLNKRQLITEERIPNNTQWVTWSPVGHKLAYVWNNDIYVKIEPNLPSYRITWTGKEDIIYNGITDWVYEEEVFSAYSALWWSPNGTFLAYAQFNDTEVPLIEYSFYSDESLQYPKTVRVPYPKAGAVNPTVKFFVVNTDSLSSVTNATSIQITAPASMLIGDHYLCDVTWATQERISLQWLRRIQNYSVMDICDYDESSGRWNCLVARQHIEMSTTGWVGRFRPSEPHFTLDGNSFYKIISNEEGYRHICYFQIDKKDCTFITKGTWEVIGIEALTSDYLYYISNEYKGMPGGRNLYKIQLSDYTKVTCLSCELNPERCQYYSVSFSKEAKYYQLRCSGPGLPLYTLHSSVNDKGLRVLEDNSALDKMLQNVQMPSKKLDFIILNETKFWYQMILPPHFDKSKKYPLLLDVYAGPCSQKADTVFRLNWATYLASTENIIVASFDGRGSGYQGDKIMHAINRRLGTFEVEDQIEAARQFSKMGFVDNKRIAIWGWSYGGYVTSMVLGSGSGVFKCGIAVAPVSRWEYYDSVYTERYMGLPTPEDNLDHYRNSTVMSRAENFKQVEYLLIHGTADDNVHFQQSAQISKALVDVGVDFQAMWYTDEDHGIASSTAHQHIYTHMSHFIKQCFSLP
- cleavage of Gly-Pro-pNA substrate by DPP-4: did not inhibit cleavage of Gly-Pro-pNA substrate at 100 µM
